For this test, the target named is HA-tagged HNRNPK (heterogeneous nuclear ribonucleoprotein K), wild type (human) (UniProt P61978). Kind of test: co-IP; anti-HA agarose beads on lysates of Huh7.5 cells stably expressing HA-tagged HNRNPK or its deletion mutants, 48 h after electroporation with a subgenomic JFH1 replicon or genomic HCV RNA; lysis buffer 20 mM Tris-HCl pH 7.5, 0.5% Nonidet P-40, 1 mM sodium deoxycholate, 100 mM NaCl; 3 h at 4°C; elution with HA peptide; immunoblot; cells with non-tagged HNRNPK as control.

On to HCV core protein (natural protein), for which the percent of the intracellular HCV protein coprecipitated is 1%.

These data come from PMC4287573.
